# Data from publication PMC4987513, “Phytochrome B and REVEILLE1/2-mediated signalling controls seed dormancy and germination in Arabidopsis”.
# B1: GA3ox2 E4 (3 copies) mutant (dsDNA)
# DNA 1: AAGTACGTCTCAGTACCAAAAAGTACGTCTCAGTACCAAAAAGTACGTCTCAGTACCAAA
# DNA 2: TTTGGTACTGAGACGTACTTTTTGGTACTGAGACGTACTTTTTGGTACTGAGACGTACTT
# B2: GA3ox2 E3 (3 copies) mutant (dsDNA)
# DNA 1: GTTTAACGGGATAGGTTTTTGTTTAACGGGATAGGTTTTTGTTTAACGGGATAGGTTTTT
# DNA 2: AAAAACCTATCCCGTTAAACAAAAACCTATCCCGTTAAACAAAAACCTATCCCGTTAAAC
# B3: GA3ox2 E3 (3 copies) WT (dsDNA)
# DNA 1: GTTTAACGATATTAGTTTTTGTTTAACGATATTAGTTTTTGTTTAACGATATTAGTTTTT
# DNA 2: AAAAACTAATATCGTTAAACAAAAACTAATATCGTTAAACAAAAACTAATATCGTTAAAC
# B4: GA3ox2 E4 (3 copies) WT (dsDNA)
# DNA 1: AAGTATCATATCATACCAAAAAGTATCATATCATACCAAAAAGTATCATATCATACCAAA
# DNA 2: TTTGGTATGATATGATACTTTTTGGTATGATATGATACTTTTTGGTATGATATGATACTT
# Tests used:
# Conditions in all cases: protein: recombinant; tags: His; blunt
# HIS-RVE1 [1] = molecular target: T1, HIS-RVE1 (Arabidopsis thaliana, UniProt F4KGY6 1-387); test: competition; unlabelled 50x excess vs biotin-E4 probe; no effect on shift; LightShift Chemiluminescent EMSA Kit (Pierce) per manufacturer, 5% polyacrylamide gel; buffer, salt, pH and temperature not stated
# HIS-RVE1 [2] = molecular target: T1, HIS-RVE1; test: competition; unlabelled 50x excess vs biotin-E3 probe; no effect on shift; LightShift Chemiluminescent EMSA Kit (Pierce) per manufacturer, 5% polyacrylamide gel; buffer, salt, pH and temperature not stated
# HIS-RVE1 [3] = molecular target: T1, HIS-RVE1; test: EMSA; LightShift Chemiluminescent EMSA Kit (Pierce) per manufacturer, 5% polyacrylamide gel; buffer, salt, pH and temperature not stated
# T1 sequence (F4KGY6 whole entry): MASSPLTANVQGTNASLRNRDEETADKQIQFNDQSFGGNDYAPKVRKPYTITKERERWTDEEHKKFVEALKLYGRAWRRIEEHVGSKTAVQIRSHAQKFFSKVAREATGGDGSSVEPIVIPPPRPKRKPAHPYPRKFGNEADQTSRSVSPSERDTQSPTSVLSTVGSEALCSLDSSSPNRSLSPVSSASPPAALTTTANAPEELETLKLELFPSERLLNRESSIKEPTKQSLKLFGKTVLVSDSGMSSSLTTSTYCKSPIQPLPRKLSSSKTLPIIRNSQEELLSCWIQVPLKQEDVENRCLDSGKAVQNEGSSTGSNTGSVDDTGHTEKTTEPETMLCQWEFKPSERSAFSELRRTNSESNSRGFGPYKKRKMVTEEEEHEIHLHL
binder,measurement,setting,value
B1,binding result,HIS-RVE1 [1],no binding
B2,binding result,HIS-RVE1 [2],no binding
B3,binding result,HIS-RVE1 [3],binds
B4,binding result,HIS-RVE1 [3],binds
